Test results taken from article PMC6582535.

Target: Cholecystokinin type B receptor (mouse (endogenous in DRG)) (UniProt P56481)
Sequence of UniProt P56481 (P56481 whole entry): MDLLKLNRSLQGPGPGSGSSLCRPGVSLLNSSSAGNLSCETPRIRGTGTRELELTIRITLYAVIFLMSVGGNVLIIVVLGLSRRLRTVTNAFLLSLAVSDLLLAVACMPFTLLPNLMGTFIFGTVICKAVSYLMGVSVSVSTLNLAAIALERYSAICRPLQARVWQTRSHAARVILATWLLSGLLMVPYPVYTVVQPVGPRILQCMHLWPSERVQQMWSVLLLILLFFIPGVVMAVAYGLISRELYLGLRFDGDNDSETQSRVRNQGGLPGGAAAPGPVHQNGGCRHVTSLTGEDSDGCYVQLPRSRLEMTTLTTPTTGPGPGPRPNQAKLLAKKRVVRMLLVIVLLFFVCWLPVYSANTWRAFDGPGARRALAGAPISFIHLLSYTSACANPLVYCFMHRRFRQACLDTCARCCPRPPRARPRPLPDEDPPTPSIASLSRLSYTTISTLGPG

percent decrease of A-type K+ current (IA) in small-sized mouse DRG neurons at 300 nM CCK-4: 32.2%
Substance: CCK-4 (peptide)
